Laboratory results: publication PMC9323360, “Cloning, Expression, Purification, and Characterization of β-Galactosidase from Bifidobacterium longum and Bifidobacterium pseudocatenulatum” (Molecules, 2022)

B1: BPGLB1 (Bifidobacterium pseudocatenulatum) (protein)
chain: MHRTFKWPELLTDNGKGIAYGGDYNPDQWSEDVWDEDVRLMKQAGVNTVAVAIFSWDRIQPEENRWDFGWLDRIIDKLGKAGIAVDLASATATAPLWLYEKHPEVLPQDKFGHPVNAGSRQSWSPTSPVFKEYALTLCRKLAERYGTNPYVTAWHMGNEYGWNNRYDYSDNALNAFRLWCERKYGTIENLNKAWGTTFWGQEMNGFHEVLIPRFMGADSMVNPGQKLDFERFGNDMLLDFYKAERDAIAEICPDKPFTTNFMVSTDQCCMDYADWAEEVDFVSNDHYFHEGESHIDELFCSDALMDSLALGKPWYVMEHSTSAVQWKPLNARKRKGETVRDSIAHVAMGADAINFFQWRASAFGAESFHSALVPHAGEDTKLFRQVCELGAALKTLGDAGVQGTELEQSDTAILFSAESEWATRSETLPSMKLNHWHDVRDWYRAFLNAGTRADIVPLKYDWNAYKTVVLPTVIMLSAEDTQRLADFAAAGGRVVIGYATGLIDENFHTWLGGYPGAGDGLLREMLGIRGEEFNILGAEAEGEPSEIRLSSGAVTRLWQNDVNVDGERAQVLATYEGEEADEWELDGTAAITRNPYGSGETYFVGCDLNVADLTEFVRENIVEDSANVANPADSDVLHTVRKSADATFDFYLPRGKKEIALQGIEGEPIYLFQAEAEERTGSYTVHRNGVLVVKRA
B2: BLGLB1 (Bifidobacterium longum) (protein)
chain: MTTRRTFRWPSLLTESGRGIAFGGDYNPDQWSEETLDEDIRLMVQAGVNTVALAIFSWDKIEPREGEFTFEWLDHVIDKLGAAGIAVDLASATATAPLWLYERHPEVLPIDRYGHVVNAGSRQSWQPTSPVLKEYALRLCRKLAEHYKDNPYVTAWHMGNEYGWNNRYDYSDNALAAFRTWCEAKYGTVDALNEAWGTAFWSQHVNSFDEVLLPRHMGGDSMVNPPQQLDYERFGNDMLLDFYKAERDAIEEICPGKPFTTNFMVSTDQCTMDYAQWANEVDFVSNDHYFHEGESHLDELACSDALMDSLALGKPWYVMEHSTSAVQWKPLNMRKRAGELMRDSLAHVAMGADAINFFQWRQSASGAEAFHSAMVPHAGSDTKLFRGVCELGAALKTLSDAGVQDTELKRADTAILFSAESEWATRSETLPSMKLNHWHDVRDWYRGYLDAGARADVVPLAYDWSGYQTIVLPTVIALSDEDTRRIADFAENGGTVIVGYATGLIDEHFHIGLGGYPGAGNGLLRDMLGIRSEEFNILGEEAEDEPAEIGLSNGLTTRLWQNDVTSVAPDTRVLATYVGTAAADWELDGVPAITSHPHGQGAAIYVGCDLGRHDITHLLKELNTTAPSDERAPDQRPGGGEINAATTTAAAATHDPRILHTIRQSSDGTIRFDFYLNRSKQPVAVNGVEGDPIIAHRCETDAVGYTLNRNAILIAKTSC

Substrate: O=[N+]([O-])c1ccccc1O[C@@H]1O[C@H](CO)[C@H](O)[C@H](O)[C@H]1O
Experiment: purified protein

Row | Protein | Km (pH 6.0, 45 °C) | Vmax (pH 6.0, 45 °C) | kcat (pH 6.0, 45 °C) | kcat/Km (pH 6.0, 45 °C) | Km (pH 5.5, 45 °C) | Vmax (pH 5.5, 45 °C) | kcat (pH 5.5, 45 °C) | kcat/Km (pH 5.5, 45 °C)
1 | B1 | 1.3 ± 0.3 mmol/L | 1.1 ± 0.1 (oNPG) | 0.5 ± 0.02 s⁻¹ | 0.36 (oNPG) | – | – | – | –
2 | B2 | – | – | – | – | 1.9 ± 0.1 mmol/L | 3700 ± 100 (oNPG) | 1700 ± 40 s⁻¹ | 870 (oNPG)
